A word on the EC50: it is the concentration needed to bring the measured effect to its halfway point. One may read the Kd as a measure of binding affinity in units of concentration. One may read the koff as a measure of how fast the partners let go of each other. The term kon denotes a measure of how fast the partners come together.

Numbering of substitutions follows the chain as printed.

To fix the notation:
T1: Cynomolgous monkey (cyno) TF-ECD with His Tag (cynomolgus monkey, UniProt P13726 33-251 (human entry))
T1 construct: also called cyno antigen
T1 chain: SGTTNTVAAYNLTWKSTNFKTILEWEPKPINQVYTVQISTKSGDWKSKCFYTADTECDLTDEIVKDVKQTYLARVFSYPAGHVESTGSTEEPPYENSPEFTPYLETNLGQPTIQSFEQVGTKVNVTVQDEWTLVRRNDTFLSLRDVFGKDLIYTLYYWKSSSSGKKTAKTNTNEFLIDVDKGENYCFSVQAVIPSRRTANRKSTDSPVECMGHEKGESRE

B1: M11 (antibody, V domains shown)
VH: EVQLVQSGAEVKKPGESLRISCKGSGYTFITYWIEWVRQMPGKGLEWMGDILPGSGSTNYNENFKGHVTISADKSISTAYLQWSSLKASDTAMYYCARSGYYGNSGFAYWGQGTLVTVSS
VL: DIVMTQSPLSLPVTPGEPASISCKSSQSLLSSGNQKNYLTWYLQKPGQSPQLLIYWASTRESGVPDRFSGSGSGTDFTLKISRVEAEDVGVYYCQNDYTYPLTFGQGTKLEIK
notes: complete MAb; FR4 is its own entry; also called H15/L4
B2: M60 (antibody, V domains shown)
VH: B1 VH with N61S, E62P, N63S, K65Q
VL: B1 VL
notes: complete MAb; FR4 is its own entry; also called H22/L4
B3: M12 (antibody, V domains shown)
VH: B1 VH
VL: B1 VL with S7T, P12S, E17Q, S49P
notes: complete MAb; FR4 is its own entry; also called H15/L5
B4: M52 (antibody, V domains shown)
VH: EVQLVQSGAEVKKPGATVKISCKVSGYTFITYWIEWVQQAPGKGLEWMGDILPGSGSTNYNENFKGRVTITADTSTDTAYMELSSLRSEDTAVYYCATSGYYGNSGFAYWGQGTLVTVSS
VL: B1 VL with S7T
notes: complete MAb; FR4 is its own entry; also called H21/L3
B5: M51 (antibody, V domains shown)
VH: B4 VH
VL: DIVMTQSPDSLAVSLGERATINCKSSQSLLSSGNQKNYLTWYQQKPGQPPKLLIYWASTRESGVPDRFSGSGSGTDFTLTISSLQAEDVAVYYCQNDYTYPLTFGQGTKLEIK
notes: complete MAb; FR4 is its own entry; also called H21/L2
B6: M31 (antibody, V domains shown)
VH: EVQLVESGGGLVQPGGSLRLSCAASGYTFITYWIEWVRQAPGKGLVWVSDILPGSGSTNYNENFKGRFTISRDNAKNTLYLQMNSLRAEDTAVYYCARSGYYGNSGFAYWGQGTLVTVSS
VL: B1 VL with S7T
notes: complete MAb; FR4 is its own entry; also called H18/L3
B7: M54 (antibody, V domains shown)
VH: B4 VH
VL: B1 VL with S7T, P12S, E17Q, S49P
notes: complete MAb; FR4 is its own entry; also called H21/L5
B8: M33 (antibody, V domains shown)
VH: B6 VH
VL: B1 VL with S7T, P12S, E17Q, S49P
notes: complete MAb; FR4 is its own entry; also called H18/L5
B9: M32 (antibody, V domains shown)
VH: B6 VH
VL: B1 VL
notes: complete MAb; FR4 is its own entry; also called H18/L4
B10: M35 (antibody, V domains shown)
VH: B6 VH
VL: B1 VL with S7T, L11S, P15L, E17Q, Y42L, L43Q, K45R, S49P, Q51R, S73A
notes: complete MAb; FR4 is its own entry; also called H18/L7
B11: M56 (antibody, V domains shown)
VH: B4 VH
VL: B1 VL with S7T, L11S, P15L, E17Q, Y42L, L43Q, K45R, S49P, Q51R, S73A
notes: complete MAb; FR4 is its own entry; also called H21/L7
B12: M30 (antibody, V domains shown)
VH: B6 VH
VL: B5 VL
notes: complete MAb; FR4 is its own entry; also called H18/L2

The target of the first assay is T2, recombinant extracellular domain (ECD) of human TF, amino acid 1-219 of the mature chain, C-terminal His6-tag (human, UniProt P13726 33-251).
T2 construct: expressed in a mammalian system; used for ELISA and Biacore; biotinylated by NHS-ester for the Fab ELISA; also called His6-TF-ECD1-219; HumanTF1-219
The assay is described as follows: TF-ECD binding ELISA, chemiluminescent.
Turning to B1, the EC50 is 0.00994 µg/mL.

As to B2, the EC50 was determined as 0.00835 µg/mL.

Take B3: the EC50 amounted to 0.01 µg/mL.

The next assay deals with T1, Cynomolgous monkey (cyno) TF-ECD with …. The assay is described as follows: TF-ECD binding ELISA, chemiluminescent. Background: ELISA stands for enzyme-linked immunosorbent assay.
For B1, a half-maximal effect (EC50) was put at 0.0187 µg/mL.

For B2, the EC50 was 0.0178 µg/mL.

In the case of B3, it took 0.0228 µg/mL to reach a half-maximal effect (EC50).

The target in a further assay is T3, endogenous human tissue factor on MDA-MB-231 breast cancer cells (human, UniProt P13726 33-295). The assay is described as follows: cell-based or functional assay.
As to B1, the “% IL-8 Inhibition” value came out at 87.9%.

As to B2, the “% IL-8 Inhibition” value was 99.6%.

As for B4, the “% IL-8 Inhibition” value stood at 67.7%.

Consider B3, for which the “% IL-8 Inhibition” value came to 98.6%.

As for B5, the “% IL-8 Inhibition” value was found to be 71.5%.

A further assay deals with T2, recombinant extracellular domain (ECD) …. The assay is described as follows: Biacore.
B1: the Kd was 0.36 nM.

With B2, the Kd was 0.47 nM.

In the case of B4, the Kd came to 3.57 nM, the koff was found to be 0.000264 s⁻¹ and the kon is 74000 M⁻¹ s⁻¹.

On to B3, for which the Kd came out at 0.55 nM, the koff is 5.1e-05 s⁻¹ and the kon is 92200 M⁻¹ s⁻¹.

Take B5: the Kd was 2.9 nM, the koff stood at 0.000235 s⁻¹ and the kon came to 81100 M⁻¹ s⁻¹.

Another assay has as its target T3, endogenous human tissue factor on …. The assay is described as follows: cell-based or functional assay. The source holds these as a separate data set.
In the case of B1, the “IL-8 Induction, Ave % inhibition” value was found to be 93%.

In the case of B2, the “IL-8 Induction, Ave % inhibition” value amounted to 106%.

In the case of B3, the “IL-8 Induction, Ave % inhibition” value amounted to 102%.

A further assay addresses Innovin, lyophilized recombinant human tissue factor combined with phospholipids (human, UniProt P13726 33-295, limits assumed). The assay is described as follows: cell-based or functional assay.
Turning to B1, the “T½ Max (seconds), coagulation of human plasma” value (shortened to “T½ Max (seconds), coagulation”) was 195 s.

For the molecule B2, the “T½ Max (seconds), coagulation” value is 180 s.

Regarding B4, the “T½ Max (seconds), coagulation” value is 201 s.

Regarding B3, the “T½ Max (seconds), coagulation” value worked out at 197 s.

For B5, the “T½ Max (seconds), coagulation” value was found to be 207 s.

In a further assay the target is T2, recombinant extracellular domain (ECD) …. The assay is described as follows: Biacore. The source holds these as a separate data set. For orientation: SPR reads the build-up and loss of mass on a sensor chip optically.
In the case of B1, the Kd was 0.37 nM.

Regarding B2, the Kd is 0.47 nM.

For the molecule B3, the Kd is 0.55 nM.

A further assay addresses T1, Cynomolgous monkey (cyno) TF-ECD with …. The assay is described as follows: Biacore.
B1: the affinity, expressed as Kd, was 1.52 nM.

Consider B2, for which binding was put at a Kd of 1.31 nM.

Regarding B3, the Kd stood at 2.24 nM.

A further assay has as its target T3, endogenous human tissue factor on …. The assay is described as follows: FACS on MDA-MB-231 cells. How it is done:
This assay is used to detect the direct binding of antibody to endogenouse human TF expressed in breast cancer cells. Prepare four point titrations of the test mAbs in FACS buffer (1% FBS in PBS) in duplicate. Start a titration at 1,000 ng/ml with 1:4 dilutions. […] Unstained cells and secondary antibody, Cy-5 conjugated Goat anti-Human IgG Fc antibody in FACS buffer 1:200, is used as controls and prepared immediately before use.
Using standard tissue culture technique, rinse adherent MDA-MB-231 cells in culture flask with once with PBS (w/o Ca+2/Mg+2). Lift cells with Versene and count the cells and seed 200,000 cells per well in a polystyrene V-bottom plate. FACS Analysis Protocol: Tissue Factor Binding. Pellet the cells in a Allegra X-15R centrifuge at 450×g for 3 minutes at 4° C., resuspend in FACS Buffer (2% FBS in PBS) and plate 200,000 cells per well in 200 uL. Pellet cells at 450×g for 3 minutes at 4° C. Discard supernatants and add 100 uL/well test or control mAbs to designated wells and incubate on ice or at 4° C. for 1 hour (+/−10 minutes). Pellet cells at 450×g for 3 minutes at 4° C. Discard supernatants and wash cells once in FACS buffer. Resuspend cells in 200 uL/well FACS buffer and pellet cells at 450×g for 3 minutes at 4° C. Discard supernatants and add 100 uL/well secondary antibody to designated wells (triterate), and incubate on ice for 1 hour (+/−10 minutes). Pellet cells at 450×g for 3 minutes at 4° C. Discard supernatants and wash cells 2 times in FACS buffer before resuspending the cells in 200 uL/well FACS Buffer (triterate). Pellet cells at 450×g for 3 minutes at 4° C. Discard supernatant and resuspend cells in 100 uL/well CytoFix Buffer. Analyze reactions by flow cytometry (BD FACSArray). The FlowJo Software is used for FACS data analysis by gating the main population of cells in the unstained control well and applying the gate to the whole data set. The data is exported as a table of the geometric mean fluorescence intensity (MFI) in the red channel for the applied gate.
Turning to B1, the “Whole Cell Binding, Ave %” value came to 114%.

For the molecule B3, the “Whole Cell Binding, Ave %” value turned out to be 124%.

The target in the next assay is T2, recombinant extracellular domain (ECD) …. The assay is described as follows: direct ELISA, 50 ng/ml.
On to B6, for which the binding result is reported as “binds”.

B7: the binding result is on record as “binds”.

With B8, the binding result is “binds”.

On to B9, for which the binding result is listed as “binds”.

As to B10, the binding result is “binds”.

For B11, the binding result is recorded as “binds”.

Regarding B12, the binding result is given as “binds”.

A further assay concerns the target T1, Cynomolgous monkey (cyno) TF-ECD with …. The assay is described as follows: direct ELISA of supernatants, chemiluminescent. How it is done:
A solution Phase direct TF binding ELISA using chemiluminescent detection was used to rank the top binders from human framework adaptation library. The 96 well black maxisorp plates were coated with 100 uL of 4 ug/ml Goat anti human IgG FC diluted in carbonate-bicarbonate buffer, pH 9.4 at 4° C. overnight and then washed thrice with wash buffer (PBS with 0.05% Tween-20 solution) and blocked with […] 1% BSA/10 mM PBS solution for 1 hour followed by a washing as before. Samples or standards were diluted to 50 ng/ml in Assay Buffer (1% BSA in PBS+05% Tween) and 100 ul was added to the assay plate at room temperature for 1 hour with shaking. The plates were washed thrice and 100 ul per well of human or cynomologus TF-ECD with His Tag was added at 100 ng/ml diluted in Assay Buffer and incubate for 2 hours at room temperature. After washing, 100 ul per well of Qiagen peroxidase conjugated penta-his at 1:2000 dilution in assay buffer was added and incubated 1 hour at room temperature with shaking. The BM ChemiLum Substrate (BM Chemilum, POD, Roche) was made freshly at 1:100 dilution into Buffer and 100 ul added to the plates after a final wash. After 10 minutes the plates are read on Perkin Elmer Envision Reader, BM ChemiLum program.
For primary screening of library variants in crude supernatants, samples or controls were normalized to 50 ng/ml in spent FreeStyle 293 HEK media (Gibco) and assayed at single concentration determinations. In the present assay, the concentration of antibody was 5 ng (0.1 ml used) and the TF ECD and the antigen was His6-TF-ECD₁₋₂₁₉ used at a final concentration of 10 ng/well.
As to B6, the binding result was “no binding (tested: 50 ng/ml)”.

In the case of B7, the binding result is recorded as “no binding (tested: 50 ng/ml)”.

Regarding B8, the binding result is “no binding (tested: 50 ng/ml)”.

For the molecule B9, the binding result is recorded as “no binding (tested: 50 ng/ml)”.

In the case of B4, the binding result was “no binding (tested: 50 ng/ml)”.

For B10, the binding result was “no binding (tested: 50 ng/ml)”.

Consider B11, for which the binding result was “no binding (tested: 50 ng/ml)”.

As for B5, the binding result is “no binding (tested: 50 ng/ml)”.

Turning to B12, the binding result is “no binding (tested: 50 ng/ml)”.
